In patent US20240352127A1 one finds MFI data, which are given here for one substance.

The target of assay [1] is human PD-L1 on cells (human) (UniProt Q9NZQ7). Briefly: FACS staining of HCT116 cells with control antibody (expression profile), triplicates.
Assay [2] has the same target. Description: FACS staining of MDA-MB-231 cells with control antibody (expression profile), triplicates.

human PD-L1 on cells (human), sequence (Q9NZQ7 19-290 limits assumed): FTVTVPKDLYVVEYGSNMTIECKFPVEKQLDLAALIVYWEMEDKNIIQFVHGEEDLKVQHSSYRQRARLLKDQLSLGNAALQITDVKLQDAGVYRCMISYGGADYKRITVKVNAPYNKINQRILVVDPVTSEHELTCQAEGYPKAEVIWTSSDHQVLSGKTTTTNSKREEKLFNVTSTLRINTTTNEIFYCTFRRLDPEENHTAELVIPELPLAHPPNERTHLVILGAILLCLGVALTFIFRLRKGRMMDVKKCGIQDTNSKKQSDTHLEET

In the case of anti-PD-L1 RG7446 MPDL3280A (antibody), the MFI is 10900 MFI in assay [1] and 74600 MFI in assay [2].
